According to patent US7588931B2, “High arachidonic acid producing strains of Yarrowia lipolytica” (E. I. du Pont de Nemours and Company, priority 2004, dated 2009):

Key:
Yarrowia lipolytica = test: Percent substrate conversion of desaturases and elongases expressed in Yarrowia lipolytica; format: cell-based; conditions: percent substrate conversion, codon-optimized gene expressed in Y. lipolytica
Description: The terms “conversion efficiency” and “percent substrate conversion” refer to the efficiency by which a particular enzyme (e.g., a desaturase or elongase) can convert substrate to product. The conversion efficiency is measured according to the following formula: ([product]/[substrate+product])*100, where ‘product’ includes the immediate product and all products in the pathway derived from it.
With respect to Δ12 desaturase, Applicants have made the surprising discovery that the Fusarium moniliforme Δ12 desaturase (encoded by SEQ ID NO:27) functions with greater efficiency than the native Yarrowia lipolytica Δ12 desaturase in producing 18:2 in Y. lipolytica (see WO 2005/047485). Specifically, expression of the F. moniliforme Δ12 desaturase under the control of the TEF promoter in Y. lipolytica was determined to produce higher levels of 18:2 (68% product accumulation of LA) than were previously attainable by expression of a chimeric gene encoding the Y. lipolytica Δ12 desaturase under the control of the TEF promoter (59% product accumulation of LA). This corresponds to a difference in percent substrate conversion (calculated as ([18:2+18:3]/[18:1+18:2+18:3])*100) of 85% versus 74%, respectively.
In the present invention, several desaturase and elongase genes from Table 5 were codon-optimized for expression in Yarrowia lipolytica, based on the host preferences described above. This was possible by first determining the Y. lipolytica codon usage profile (see WO 04/101757) and identifying those codons that were preferred. Then, for further optimization of gene expression in Y. lipolytica, the consensus sequence around the ‘ATG’ initiation codon was determined (i.e., ‘MAMMATGNHS’ (SEQ ID NO:356), wherein the nucleic acid degeneracy code used is as follows: M=A/C; S═C/G; H=A/C/T; and N=A/C/G/T). Table 7, below, compares the activity of native and codon-optimized genes when expressed in Y. lipolytica and provides details about each codon-optimized gene. % Sub. Conv. is the abbeviation for “percent substrate conversion” and Codon-Opt. is an abbreviation for “codon-optimized”.
Construct pDMW237 (FIG. 8C), an auto-replication plasmid comprising a chimeric FBAIN::1 g D9e::Pex20 gene, was transformed into Y. lipolytica Y2031 strain (Example 4) as described in the General Methods. Three transformants of Y2031 with pDMW237 were grown individually in MM media for two days and the cells were collected by centrifugation, lipids were extracted, and fatty acid methyl esters were prepared by trans-esterification, and subsequently analyzed with a Hewlett-Packard 6890 GC.
Construct pDMW297 was then used for transformation of strain Y2031 (Example 5) according to the General Methods. The transformant cells were plated onto MM selection media plates and maintained at 30° C. for 2 to 3 days. A total of 8 transformants grown on the MM plates were picked and re-streaked onto fresh MM plates. Once grown, these strains were individually inoculated into liquid MM at 30° C. and shaken at 250 rpm/min for 2 days. The cells were collected by centrifugation, lipids were extracted, and fatty acid methyl esters were prepared by trans-esterification, and subsequently analyzed with a Hewlett-Packard 6890 GC.

[1] = test system: β-glucuronidase (GUS) reporter; test: Relative promoter activity rank from comparative GUS reporter studies (histochemical, fluorometric and/or Real Time PCR); format: cell-based, Yarrowia lipolytica; conditions: relative to other promoters
Description: The activity of GPM is about the same as TEF, while the activity of GPD, FBA, FBAIN, FBAINm, GPDIN, GPAT, YAT1 and EXP1 are all greater than TEF (activity is quantified in a relative manner in the column titled “Activity Rank”, wherein a ‘1’ corresponds to the promoter with lowest activity, while a ‘7’ corresponds to the promoter with highest activity). […] GUS activity in each expressed construct was measured by histochemical and/or fluorometric assays (Jefferson, R. A. Plant Mol. Biol. Reporter 5:387-405 (1987)) and/or by use of Real Time PCR.

Molecule	Codon-Opt. Gene % Sub. Conv. (Yarrowia lipolytica)	Activity “Rank” [1]
Homo sapiens Δ5 desaturase: GenBank NP_037534; codon-optimized gene SEQ ID NO:13 (protein, listed as Homo sapiens, misc_feature: synthetic delta-5 desaturase (codon-optimized)) MAPDPVAAETAAQGPTPRYFTWDEVAQRSGCEERWLVIDRKVYNISEFTRRHPGGSRVISHYAGQDATDPFVAFHINKGLVKKYMNSLLIGELSPEQPSFEPTKNKELTDEFRELRATVERMGLMKANHVFFLLYLLHILLLDGAAWLTLWVFGTSFLPFLLCAVLLSAVQAQAGWLQHDFGHLSVFSTSKWNHLLHHFVIGHLKGAPASWWNHMHFQHHAKPNCFRKDPDINMHPFFFALGKILSVELGKQKKKYMPYNHQHKYFFLIGPPALLPLYFQWYIFYFVIQRKKWVDLAWMITFYVRFFLTYVPLLGLKAFLGLFFIVRFLESNWFVWVTQMNHIPMHIDHDRNMDWVSTQLQATCNVHKSAFNDWFSGHLNFQIEHHLFPTMPRHNYHKVAPLVQSLCAKHGIEYQSKPLLSAFADIIHSLKESGQLWLDAYLHQ	30%	–
FBAINm: modified version of the FBAIN promoter, SEQ ID NO:163 (nucleic acid, listed as Yarrowia lipolytica, misc_feature: Promoter FBAINm) DNA: AAATTGCCCCGGAGAAGACGGCCAGGCCGCCTAGATGACAAATTCAACAACTCACAGCTGACTTTCTGCCATTGCCACTAGGGGGGGGCCTTTTTATATGGCCAAGCCAAGCTCTCCACGTCGGTTGGGCTGCACCCAACAATAAATGGGTAGGGTTGCACCAACAAAGGGATGGGATGGGGGGTAGAAGATACGAGGATAACGGGGCTCAATGGCACAAATAAGAACGAATACTGCCATTAAGACTCGTGATCCAGCGACTGACACCATTGCATCATCTAAGGGCCTCAAAACTACCTCGGAACTGCTGCGCTGATCTGGACACCACAGAGGTTCCGAGCACTTTAGGTTGCACCAAATGTCCCACCAGGTGCAGGCAGAAAACGCTGGAACAGCGTGTACAGTTTGTCTTAACAAAAAGTGAGGGCGCTGAGGTCGAGCAGGGTGGTGTGACTTGTTATAGCCTTTAGAGCTGCGAAAGCGCGTATGGATTTGGCTCATCAGGCCAGATTGAGGGTCTGTGGACACATGTCATGTTAGTGTACTTCAATCGCCCCCTGGATATAGCCCCGACAATAGGCCGTGGCCTCATTTTTTTGCCTTCCGCACATTTCCATTGCTCGGTACCCACACCTTGCTTCTCCTGCACTTGCCAACCTTAATACTGGTTTACATTGACCAACATCTTACAAGCGGGGGGCTTGTCTAGGGTATATATAAACAGTGGCTCTCCCAATCGGTTGCCAGTCTCTTTTTTCCTTTCTTTCCCCACAGATTCGAAATCTAAACTACACATCACAGAATTCCGAGCCGTGAGTATCCACGACAAGATCAGTGTCGAGACGACGCGTTTTGTGTAATGACACAATCCGAAAGTCGCTAGCAACACACACTCTCTACACAAACTAACCCAGCTCTGGTACC	–	5
EXP1: Y. lipolytica export protein promoter, SEQ ID NO:364 (nucleic acid, listed as Yarrowia lipolytica, misc_feature: Promoter EXP1) DNA: GGAGTTTGGCGCCCGTTTTTTCGAGCCCCACACGTTTCGGTGAGTATGAGCGGCGGCAGATTCGAGCGTTTCCGGTTTCCGCGGCTGGACGAGAGCCCATGATGGGGGCTCCCACCACCAGCAATCAGGGCCCTGATTACACACCCACCTGTAATGTCATGCTGTTCATCGTGGTTAATGCTGCTGTGTGCTGTGTGTGTGTGTTGTTTGGCGCTCATTGTTGCGTTATGCAGCGTACACCACAATATTGGAAGCTTATTAGCCTTTCTATTTTTTCGTTTGCAAGGCTTAACAACATTGCTGTGGAGAGGGATGGGGATATGGAGGCCGCTGGAGGGAGTCGGAGAGGCGTTTTGGAGCGGCTTGGCCTGGCGCCCAGCTCGCGAAACGCACCTAGGACCCTTTGGCACGCCGAAATGTGCCACTTTTCAGTCTAGTAACGCCTTACCTACGTCATTCCATGCATGCATGTTTGCGCCTTTTTTCCCTTGCCCTTGATCGCCACACAGTACAGTGCACTGTACAGTGGAGGTTTTGGGGGGGTCTTAGATGGGAGCTAAAAGCGGCCTAGCGGTACACTAGTGGGATTGTATGGAGTGGCATGGAGCCTAGGTGGAGCCTGACAGGACGCACGACCGGCTAGCCCGTGACAGACGATGGGTGGCTCCTGTTGTCCACCGCGTACAAATGTTTGGGCCAAAGTCTTGTCAGCCTTGCTTGCGAACCTAATTCCCAATTTTGTCACTTCGCACCCCCATTGATCGAGCCCTAACCCCTGCCCATCAGGCAATCCAATTAAGCTCGCATTGTCTGCCTTGTTTAGTTTGGCTCCTGCCCGTTTCGGCGTCCACTTGCACAAACACAAACAAGCATTATATATAAGGCTCGTCTCTCCCTCCCAACCACACTCACTTTTTTGCCCGTCTTCCCTTGCTAACACAAAAGTCAAGAACACAAACAACCACCCCAACCCCCTTACACACAAGACATATCTACAGCA	–	6
Rattus norvegicus C16/18 elongase: GenBank AB071986; codon-optimized gene SEQ ID NO:52 (protein, listed as Rattus norvegicus, misc_feature: synthetic C16/18 elongase (codon-optimized)) MDMSVLTLQEYEFEKQFNENEAIQWMQENWKKSFLFSALYAAFIFGGRHLMNKRAKFELRKPLVLWSLTLAVFSIFGALRTGAYMLYILMTKGLKQSVCDQSFYNGPVSKFWAYAFVLSKAPELGDTIFIILRKQKLIFLHWYHHITVLLYSWYSYKDMVAGGGWFMTMNYGVHAVMYSYYALRAAGFRVSRKFAMFITLSQITQMLMGCVINYLVFNWMQHDNDQCYSHFQNIFWSSLMYLSYLLLFCHFFFEAYIGKVKKATKAE	43%	–
